Reference: US20050053993A1, “Uses of an endothelial cell receptor” (priority 2002, published 2005)

Tests used:
[1] = system: neutrophils; experiment: Neutrophil migration; type: cell-based; conditions: concentrations up to 1000-fold higher than for endothelial cell migration; data not shown
[2] = system: fibroblasts; experiment: Fibroblast migration; type: cell-based; conditions: concentrations up to 1000-fold higher than for endothelial cell migration; data not shown
[3] = system: HT-29; experiment: Tumor cell proliferation, HT-29; type: cell-based; conditions: HT-29, 72 hours
Method: (§1) Cell Proliferation Assay. The effect of rK5 and rK5 peptides on endothelial cells were assessed using a proliferation assay with 1% BSA and 3 ng/ml bFGF in serum-free media. Relative cell numbers in each well of a 96 well microplate after incubation for 72 hours in the absence or presence of inhibitors were determined by using the AQueous cell proliferation assay (Promega, San Luis Obispo, Calif.). For all other cell lines tested for proliferation, minimal growth media was used (Cao, Y., Ji, R., Davidson, D., Schaller, J., Marti, D., Sohndel, S., McCance, S., O'Reilly, M., Llinas, M., and Folkman, J. Kringle domains of human angiostatin. Characterization of the anti-proliferative activity on endothelial cells. (1996) J. Biol. Chem. 271, 29461-29467). Results are presented as the percent inhibition of control cell (bFGF-induced) proliferation.

[4] = system: LNCaP; experiment: Tumor cell proliferation, LNCaP; type: cell-based; conditions: 72 hours
Method: as §1

[5] = system: P388; experiment: Tumor cell proliferation, P388; type: cell-based; conditions: P388, 72 hours
Method: as §1

[6] = system: D54; experiment: Tumor cell proliferation, D54; type: cell-based, human; conditions: D54, 72 hours
Method: as §1

[7] = system: HMVEC cells; experiment: Apoptosis of stimulated endothelial cells (histone ELISA); type: cell-based, human
Method: FIG. 9B is a graph showing the induction by rK5 of apoptosis in stimulated endothelial cells. The rate of apoptosis was measured in HMVEC cells using a histone detection kit (Markwell, M. A. K. Anal Biochem 1982, 125, 427-432.) HMVECs were grown in 96 well plates. Recombinant K5 at various concentrations was added to plates and incubated overnight. Apoptosis was determined from triplicate samples and the Apoptotic index was determined by dividing the absorbance from the treated cells by the absorbance from the untreated cells.
Assessment of Cellular Apoptosis: The effects of rK5 and rK5 peptide-induced apoptosis were determined with a histone ELISA apoptosis assay (Roche, Indianapolis, Ind.)(Mayr M, Li C, Zou Y, Huemer U, Hu Y, Xu Q. Biomechanical stress-induced apoptosis in vein grafts involves p38 mitogen-activated protein kinases. FASEB J. 2000 Feb.; 14(2):261-70) Cells (5000 per well) were grown in 96 well plates. rK5 and/or an antibody to GRP78 were added to plates and incubated overnight. Apoptosis was determined from triplicate samples and the Apoptotic Index was determined by dividing the absorbance from the treated cells by the absorbance from the untreated cells.

[8] = system: HT1080 human fibrosarcoma cells; experiment: Apoptosis of HT1080 cells under hypoxia; type: cell-based
Method: FIG. 15A is a graph showing the effect of rK5 on HT1080 human fibrosarcoma cells under hypoxic and non-hypoxic conditions. […] cells were plated on slides overnight with complete medium. Control slides were put in the incubator at 5% CO2 and 37° C. The other slide of cells was put in a hypoxic chamber with 95% N2, 5% CO2 at 37° C. for 24 hours. GRP78 on the cell surface was detected by IHC analysis with a polyclonal antibody to GRP78 conjugated to horseradish peroxidase. The GRP78 was visualized with the DAB reagent displaying a brown color.
FIG. 15B is a graph showing the effect of rK5 on induction of apoptosis in various tumor cell lines tested under hypoxic conditions. Cells were plated in 96-well plates overnight. Half the plates were put in hypoxic chambers overnight at 37° C. with and without 500 nM rK5. Increased apoptosis was shown by an ELISA technique that measures the number of nucleosome fragments. The apoptotic index was calculated from the apoptosis rate of control cells (without K5 and with or without hypoxia). The samples were run in quadruplicate.
FIG. 15C is a graph showing the effect of rK5 on hypoxia-stressed HT1090 cells transfected with an siRNA and a scrambled siRNA to GRP78. The transfected cells were plated in 96 well plates and placed at 5% CO2 and 37° C. rK5 (500 nM) was added to the cells and half were incubated in an hypoxic chamber with 95% N2, 5% CO2 at 37° C. and half were incubated at 5% CO2 and 37° C. for 24 hours. Apoptosis was shown by an ELISA technique mentioned above. The samples were run in quadruplicate.

[9] = system: caspase 7; experiment: Caspase 7 activity in HT1080 cells; type: cell-based, human; conditions: rK5 100 nM and hypoxia, overnight
Method: FIG. 16 is a graph showing the effect of rK5 and hypoxia treatment on caspace 7 activity in HT1080 cells. HT1080 cells were plated in 48 well plates. rK5 at 100 nM was added to the plates. HT1080 cells were incubated overnight in hypoxic conditions (95% N2, 5% CO2) compared to controls, which were incubated in 5% CO2. Caspase 7 activity in cell lysates was detected by the activation of an ELISA fluorescent substrate (R&D Systems).

B1: rK5: recombinant kringle 5 fragment of human plasminogen (residues 450-543), expressed in E. coli or yeast (protein)
chain: LLPDVETPSEEDCMFGNGKGYRGKRATTVTGTPCQDWAAQEPHRHSIFTPETNPRAGLEKNYCRNPDGDVGGPWCYTTNPRKLYDYCDVPQCAA
inhibition of migration of neutrophils [1]: failed to inhibit | inhibition of migration of fibroblasts [2]: failed to inhibit | IC50 values for cell proliferation [3]: >100 µg/mL | IC50 values for cell proliferation [4]: >100 µg/mL | IC50 values for cell proliferation [5]: >100 µg/mL | IC50 values for cell proliferation [6]: >100 µg/mL | induction of endothelial cell apoptosis [7]: 1 nM | apoptosis of stimulated endothelial cells ([7]; overnight, FIG. 9B): induced | activity on hypoxia-stressed GRP78 siRNA transfected HT1080 cells ([8]; hypoxia, GRP78 siRNA transfected, rK5 500 nM): significantly eliminated the activity of rK5 | increase in apoptosis under hypoxic conditions ([8]; hypoxic conditions, within 24 hours): greater than two-fold increase in apoptosis | effect on cellular apoptosis without hypoxia ([8]; without hypoxia): no significant effect | caspase 7 activity [9]: significant increase in caspase 7 activity
